Patent publication US20240009240A1 (published 2024)

T1: EGFR L858R peptide on HLA-A*11:01 (human)
T1 peptide: KITDFGRAK

B1: EGFRA11 TCRA11-7-8 (TCR, V domains shown)
Valpha: RKEVEQDPGPFNVPEGATVAFNCTYSNSASQSFFWYRQDCRKEPKLLMSVYSSGNEDGRFTAQLNRASQYISLLIRDSKLSDSATYLCVVIGGGADGLTFGKGTHLIIQP
Vbeta: GVIQSPRHEVTEMGQEVTLRCKPISGHDYLFWYRQTMMRGLELLIYFNNNVPIDDSGMPEDRFSAKMPNASFSTLKIQPSEPRDSAVYFCASRNGPEAFFGQGTRLTVV
B2: EGFRA11 TCRA11-7-12 (TCR, V domains shown)
Valpha: B1 Valpha
Vbeta: GVTQSPTHLIKTRGQQVTLRCSSQSGHNTVSWYQQALGQGPQFIFQYYREEENGRGNFPPRFSGLQFPNYSSELNVNALELDDSALYLCASSVGGDTEAFFGQGTRLTVV
B3: EGFRA11 TCRA11-7-18 (TCR, V domains shown)
Valpha: B1 Valpha
Vbeta: EPEVTQTPSHQVTQMGQEVILRCVPISNHLYFYWYRQILGQKVEFLVSFYNNEISEKSEIFDDQFSVERPDGSNFTLKIRSTKLEDSAMYFCASSGQGDLLYGYTFGSGTRLTVV
B4: #1. EGFRA11 TCRA11-6; TRAV14DV4*02 J8*01/TRBV12-4*01 C1 J1-1*01 (TCR)
TCR alpha: QKITQTQPGMFVQEKEAVTLDCTYDTSDQSYGLFWYKQPSSGEMIFLIYQGSYDEQNATEGRYSLNFQKARKSANLVISASQLGDSAMYFCAMNTGFQKLVFGTGTRLLVSPNIQNPDPAVYQLRDSKSSDKSVCLFTDFDSQTNVSQSKDSDVYITDNAVLDMRSMDFKSNSAVAWSNKSDFACANAFNNSIIPEDTFFPSPESSCDVKLVEKSFETDTNLNFQNLSVIGFRILLLKVAGFNLLMTLRLWSSRAKRSGSGATNFSLLKQAGDVEENPGP
TCR beta: GVIQSPRHEVTEMGQEVTLRCKPISGHDYLFWYRQTMMRGLELLIYFNNNVPIDDSGMPEDRFSAKMPNASFSTLKIQPSEPRDSAVYFCASRNGPEAFFGQGTRLTVVEDLNKVFPPEVAVFEPSEAEISHTQKATLVCLATGFFPDHVELSWWVNGKEVHSGVCTDPQPLKEQPALNDSRYCLSSRLRVSATFWQNPRNHFRCQVQFYGLSENDEWTQDRAKPVTQIVSAEAWGRADCGFTSVSYQQGVLSATILYEILLGKATLYAVLVSALVLMAMVKRKDF
B5: EGFRA11 TCRA11-6 (TCR, V domains shown)
Valpha: QKITQTQPGMFVQEKEAVTLDCTYDTSDQSYGLFWYKQPSSGEMIFLIYQGSYDEQNATEGRYSLNFQKARKSANLVISASQLGDSAMYFCAMNTGFQKLVFGTGTRLLVSP
Vbeta: DAGVIQSPRHEVTEMGQEVTLRCKPISGHDYLFWYRQTMMRGLELLIYFNNNVPIDDSGMPEDRFSAKMPNASFSTLKIQPSEPRDSAVYFCASRNGPEAFFGQGTRLTVV

Tests used:
[1] = target: T1, EGFR L858R peptide on HLA-A*11:01; assay: multimer staining
[2] = target: … (SEQ ID NO:71) presented on HLA-A*1101 on HLA-A*1101-transduced 293 target cells (human); assay: cell-based or functional assay
[3] = target: T1, EGFR L858R peptide on HLA-A*11:01; assay: killing

Binder | binding result [1] | also measured
B1 | recognises | 
B2 | recognises | 
B3 | recognises | 
B4 |  | specific lysis of 293A11 cells pulsed with different amounts of EGFR-A11 peptide, T cells expressing TCR6 construct at a 20:1 ratio (Cr51 release) [2]: 20 ng/mL
B5 |  | binding result [3]: recognises
